Each block holds one binder with its values, some of them ahead of it.
Assays:
[1] = biological target: T1, TrkA protein on HEK-293T-TrkA cells or NIH-3T3-TrkA cells (human, UniProt P04629 33-796); assay: flow cytometry competition: antibody titrated against biotinylated NGF binding to HEK-293T-TrkA cells, % parent
T1 construct: whole, on cells; Printed only as TrkA for these cells; also called TrkA protein on the membrane of NIH-3T3-TrkA cells

[2] = biological target: T1, TrkA protein on HEK-293T-TrkA cells or …; assay: flow cytometry on HEK-293T-TrKA cells
Text: (§1) In FIG. 7, the EC₅₀ (half-binding concentration) value reflects the affinity of the antibody. The smaller the EC₅₀ value, the higher the affinity of the antibody.

[3] = biological target: T1, TrkA protein on HEK-293T-TrkA cells or …; assay: cell-based or functional assay
[4] = biological target: T1, TrkA protein on HEK-293T-TrkA cells or …; assay: flow cytometry, antibody titrated on HEK-293T-TrKA cells, Parent %
Text: as §1

[5] = biological target: T2, TRKA protein with a histidine tag (human, UniProt P04629 33-423, limits assumed); assay: BLI (Fortebio Octet RED96), His-tagged TRKA on Ni-NTA sensor, antibody 80-2.93 nM
T2 construct: it is put last here only for order; also called TRKA (50 µg/ml, 75 kDa, provided by HEC Labs); not shown: histidine tag
Description: They were added to each well of the sample plate. […] The KD value is the equilibrium dissociation constant between the antibody and its antigen, and the KD value is inversely proportional to the affinity. The KD value is related to the antibody concentration (the amount of antibody required for a particular experiment). The lower the KD value (the lower the concentration), the higher the affinity of the antibody. High-affinity antibodies are generally considered to be in the low nanomolar range (10⁻⁹).

[6] = biological target: T3, TrKA receptor protein coated in ELISA (Examples 11 and 16) (human, UniProt P04629 33-423, limits assumed); assay: competition ELISA: antibody titrated against biotinylated NGF binding to TrkA, OD450
T3 construct: also called Human-TrKA

[7] = biological target: T3, TrKA receptor protein coated in ELISA …; assay: ELISA plateau, antibody up to 20 µg/mL on TrKA
Description: The TrkA receptor family belongs to receptor tyrosine kinases (RTKs), including TrkA, TrkB, and TrkC, which have high homology. TrkA is a receptor tyrosine kinase of nerve growth factor (NGF) that selectively binds to NGF and is a functional receptor for NGF. In addition to the high-affinity receptor TrkA, NGF can also bind to its low-affinity receptor p75. In the test, the binding of test antibodies at different concentrations (20 μg/mL, 10 μg/mL, 5 μg/mL, 2.5 μg/mL, 1.25 μg/mL, 0.625 μg/mL, 0.313 μg/mL, 0.156 μg/mL, 0.078 μg/mL, 0.039 μg/mL, 0.019 μg/mL) to TrKA, TrKB, TrKC, and P75 respectively was detected by the ELISA method, and the specificity of the test antibody binding to the target TrKA was evaluated. In the FIG. 8, at a certain antibody concentration, the OD₄₅₀ value reflects the binding strength of the antibody to the protein. The larger the reading, the stronger the binding of the antibody to the protein. […] It can be seen that the specificity of the binding of the test antibodies to the target TrKA is very good.

[8] = biological target: T4, Mouse-TrKA protein (mouse, UniProt Q3UFB7 34-420, limits assumed); assay: ELISA, hybridoma supernatant on Mouse-TrKA
T4 construct: also called Mouse-TrKA receptor
Text: The binding of monoclonal antibodies produced by the supernatant of each positive clone to the Mouse-TrKA receptor was detected by ELISA method, and the human-mouse cross reaction of positive clones producing monoclonal antibodies was detected. In FIG. 3, the OD₄₅₀ value reflects the strength of the binding of the antibody to the protein. The larger the reading, the stronger the binding of the antibody to the protein. […] It can be seen that clones 23E12, 21E5, 15D4, and 27H3 can produce monoclonal antibodies that bind to both Human-TrKA and Mouse-TrKA, and there is a human-mouse cross reaction.

T4 sequence (Q3UFB7 34-420 limits assumed): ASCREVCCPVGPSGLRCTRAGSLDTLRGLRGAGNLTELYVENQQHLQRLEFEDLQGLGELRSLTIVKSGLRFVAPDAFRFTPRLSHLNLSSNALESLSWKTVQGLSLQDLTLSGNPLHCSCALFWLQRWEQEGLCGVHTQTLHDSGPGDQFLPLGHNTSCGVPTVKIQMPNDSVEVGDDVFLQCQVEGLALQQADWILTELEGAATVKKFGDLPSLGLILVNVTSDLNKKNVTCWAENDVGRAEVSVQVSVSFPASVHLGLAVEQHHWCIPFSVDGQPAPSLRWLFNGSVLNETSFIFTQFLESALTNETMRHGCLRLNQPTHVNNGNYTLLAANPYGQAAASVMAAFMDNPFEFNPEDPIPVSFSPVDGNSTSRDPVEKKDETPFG
T3 sequence (P04629 33-423 limits assumed): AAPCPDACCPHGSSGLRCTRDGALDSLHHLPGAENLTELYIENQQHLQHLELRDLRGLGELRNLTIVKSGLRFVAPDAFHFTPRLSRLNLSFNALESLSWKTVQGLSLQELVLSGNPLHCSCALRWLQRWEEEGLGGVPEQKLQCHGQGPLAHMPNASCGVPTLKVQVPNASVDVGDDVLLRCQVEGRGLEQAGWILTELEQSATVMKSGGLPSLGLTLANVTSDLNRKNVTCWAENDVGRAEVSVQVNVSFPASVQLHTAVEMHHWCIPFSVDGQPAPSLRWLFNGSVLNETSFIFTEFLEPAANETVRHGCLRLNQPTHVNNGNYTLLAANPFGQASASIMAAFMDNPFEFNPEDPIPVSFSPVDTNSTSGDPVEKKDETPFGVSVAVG
T2 sequence (P04629 33-423 limits assumed): as above
T1 sequence (P04629 33-796): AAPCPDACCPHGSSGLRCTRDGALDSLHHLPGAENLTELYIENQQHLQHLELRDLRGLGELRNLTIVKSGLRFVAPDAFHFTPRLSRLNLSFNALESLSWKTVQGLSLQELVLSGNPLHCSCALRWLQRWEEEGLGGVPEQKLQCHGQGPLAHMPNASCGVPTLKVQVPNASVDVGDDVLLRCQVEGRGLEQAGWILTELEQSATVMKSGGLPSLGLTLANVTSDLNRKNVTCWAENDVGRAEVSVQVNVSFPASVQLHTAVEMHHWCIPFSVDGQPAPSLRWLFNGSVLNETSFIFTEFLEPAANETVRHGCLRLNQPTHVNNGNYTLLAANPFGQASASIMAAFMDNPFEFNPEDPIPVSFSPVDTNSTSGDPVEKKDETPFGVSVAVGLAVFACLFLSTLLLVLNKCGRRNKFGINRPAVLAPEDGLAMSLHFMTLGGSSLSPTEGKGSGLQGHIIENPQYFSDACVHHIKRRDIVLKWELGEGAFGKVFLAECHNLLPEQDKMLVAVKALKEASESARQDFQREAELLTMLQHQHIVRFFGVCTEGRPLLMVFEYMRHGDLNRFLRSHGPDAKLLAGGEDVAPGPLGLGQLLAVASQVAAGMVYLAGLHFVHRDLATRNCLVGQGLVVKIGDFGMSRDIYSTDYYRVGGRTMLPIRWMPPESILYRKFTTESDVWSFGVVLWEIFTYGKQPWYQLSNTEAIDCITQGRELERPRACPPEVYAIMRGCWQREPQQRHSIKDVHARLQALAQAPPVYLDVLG

B1: 2008 chimeric antibody (antibody, human IgG4 S228P, kappa, F234A L235A, V domains shown)
VH: EVLLQQSGPELVKPGASMKISCKASVYSFTAYTMNWVKQSHGKNLEWIGLINPHNGGTRYNQKFKGKATLTLDKSSSTAYMDLLSLTSEDSAVYYCAISRYGSSSFYFDVWGAGTTVAVSS
VL: QIVLSQSPAILSASPGEKVTMTCRASSSISYMHWYQQKPGSSPKPWISATSNLASGVPARFSGSGSGTSYSLTISGVEAEDAATYYCQQWSSNPPTFGGGTNLEIKR
notes: also called 20C8
- IC50 [1]: 0.822 µg/mL
- EC50 [2]: < 1.5 µg/mL
- IC50; p-TrkA level by AlphaLISA in NGF-stimulated NIH3T3-TrkA stable cell line [3]: 0.11 µg/mL
- EC50 [4]: 0.136 µg/mL
- Kd [5]: 0.115 nM
- koff [5]: 6.33e-05 s⁻¹
- kon [5]: 551000 M⁻¹ s⁻¹
- IC50 [6]: 0.31 µg/mL
- OD450 [7]: ~3 OD450

B4: mouse monoclonal antibody produced by hybridoma clone 4H4 (antibody, V domains shown)
VH: EVQLQQSGPELVKPGASMKISCKASGYSFTGYTMNWVKQSHGKNLEWIGLINPYNGGTRYNQKFKGKATLTVDKSSSTAYMELLSLTSEDSAVYYCASSSYRNDGNWYFDVWGAGTTVTVSS
VL: DIVMTQSPAIMSASPGEKVTMTCSASSSVSYMHWYQQKSGTSPKRWIYDTSKLASGVPARFSGSGSGTSYSLTISSMETEDAATYYCQQWSSNPPTFGGGTKLELK
notes: also called 4H4 (positive clone supernatant)
- binding result [8]: no binding

B5: mouse monoclonal antibody produced by hybridoma clone 23E12 (antibody, V domains shown)
VH: QVQLQQSGAELVRPGTSVKISCKASGYAFTNYWLGWMKQRPGHGLEWIGDFYPRTGNTFYNENFKGKVTLTADKSSNTAYMQLSSLTSEDSAVYLCARAGTGFDYWGQGTTLTVSS
VL: SIVMTQSPKSMSMSVGERVTLSCKASENVGGYVSWYQQKPDQSPKLLIYGASSRHTGVPDRFTGSGSETDFTLTISSVQAEDLAAYHCGQNYIYPFTFGGGTKLEIK
notes: also called 23E12 (positive clone supernatant)
- OD450 [8]: ~3.5 OD450

B6: 1B9 chimeric antibody (antibody, human IgG4 S228P, kappa, F234A L235A, V domains shown)
VH: QVHLQQSGAELMKPGASVKISCKATGYTFNIYWIDWVKQRPGHGLEWIGEILPGSGNTHYNENFKGKATMTADTSSNTAYMQLTSLTSEDSAVYYCARTDGRGYFDYWGQGTTLTVSS
VL: DIVLTQSPASLVVSLGQRATISCRTSKSVSSSAYSYMHWYQQKPGQPPKVLIYLASNLESGVPARFSGSGSGTDFTLNIHPVEEEDAATYYCQHSRELPFTFGSGTKLEIKR
notes: expressed in CHO cells
- IC50 [1]: 0.334 µg/mL
- EC50 [2]: < 1.5 µg/mL
- IC50; p-TrkA level by AlphaLISA in NGF-stimulated NIH3T3-TrkA stable cell line [3]: 0.0473 µg/mL
- EC50 [4]: 0.0372 µg/mL
- Kd [5]: 0.899 nM
- koff [5]: 0.000904 s⁻¹
- kon [5]: 1.01e+06 M⁻¹ s⁻¹
- OD450 [7]: ~3 OD450

B7: mouse monoclonal antibody produced by hybridoma clone 1B9 (antibody, V domains shown)
VH: QVHLQQSGAELMKPGASVKISCKATGYTFNIYWIDWVKQRPGHGLEWIGEILPGSGNTHYNENFKGKATMTADTSSNTAYMQLTSLTSEDSAVYYCARTDGRGYFDYWGQGTTLTVSS
VL: DIVLTQSPASLVVSLGQRATISCRTSKSVSSSAYSYMHWYQQKPGQPPKVLIYLASNLESGVPARFSGSGSGTDFTLNIHPVEEEDAATYYCQHSRELPFTFGSGTKLEIK
notes: also called 1B9 (positive clone supernatant)
- binding result [8]: no binding

B9: 2A5 chimeric antibody (antibody, human IgG4 S228P, kappa, F234A L235A, V domains shown)
VH: EVQLQQSGPELVKPGASMKISCKASGYSFTGYTMNWVKQSHGKNLEWIGLINPYNGGTNYNQKFKGKATLTVDKSSSTAYMELLSLTSEDSAVYYCAFSYYGSRGFYFDYWGQGTTLTVSS
VL: QIVLTQSPALMSASPGEKVTMTCSATSSVSYIYWYQQKPRSSPKPWIYLTSNLASGVPARFSGSGSGTSYSLTISSMEAEDAATYYCQQWSSNPPTFGGGTKLEIKR
notes: expressed in CHO cells
- IC50 [1]: 4.8 µg/mL
- EC50 [2]: < 1.5 µg/mL
- EC50 [4]: 0.312 µg/mL
- Kd [5]: 0.0162 nM
- koff [5]: 3.6e-06 s⁻¹
- kon [5]: 222000 M⁻¹ s⁻¹
- IC50 [6]: 1.06 µg/mL
- OD450 [7]: ~3 OD450

B12: mouse monoclonal antibody produced by hybridoma clone 27H3 (antibody, V domains shown)
VH: QVQLQQSGAELMKPGASVKISCKTTGYRFSSYWIEWVKQRPGHGLEWLGEILPGRGIINYNENFRGKATFTADTSSNTAYVQLSSLTSEDSAVYFCARTDPPYFGVWGAGTTVTVSS
VL: QAVVTQESALTTSPGETVTLTCRSSTGAVTISNYANWVQEKPDHLFTGLIGGTNNRPPGVPARFSGSLIGDKAALTITGAQTEDEAIYFCVLWYSNHWVFGGGTKLTVL
notes: also called 27H3 (positive clone supernatant)
- OD450 [8]: ~3.5 OD450

B13: mouse monoclonal antibody produced by hybridoma clone 22D12 (antibody, V domains shown)
VH: EVQLQQSGPELVKPGASMKISCKASGYSITGYTMNWVKQSHGKNLEWIGLVNPYNGGTSYNQKFKGKATLTVDKSSSTAYMELLSLKSEDSAVYYCAISRYGSESWYFDVWGAGTTVTVSS
VL: QIVLSQSPAILSASPGEKVTMTCRATSSVSYMYWYQQKPGSSPKPWIYATSNLASGVPARFSGSGSGTSYSLTISRVEAEDAATYYCQQWSSNPPTFGGGTKLEKK
notes: also called 22D12 (positive clone supernatant)
- binding result [8]: no binding

The remaining lines, values ahead:

- binding result [8]: no binding
B2: mouse monoclonal antibody produced by hybridoma clone 2008 (antibody, V domains shown)
VH: EVLLQQSGPELVKPGASMKISCKASVYSFTAYTMNWVKQSHGKNLEWIGLINPHNGGTRYNQKFKGKATLTLDKSSSTAYMDLLSLTSEDSAVYYCAISRYGSSSFYFDVWGAGTTVAVSS
VL: QIVLSQSPAILSASPGEKVTMTCRASSSISYMHWYQQKPGSSPKPWISATSNLASGVPARFSGSGSGTSYSLTISGVEAEDAATYYCQQWSSNPPTFGGGTNLEIK

- OD450 [8]: ~3.5 OD450
B3: mouse monoclonal antibody produced by hybridoma clone 15D4 (antibody, V domains shown)
VH: QVQLQQSGAELMKPGASVKISCKATGYTFSSYWIEWVKQRPGHGLEWLGEFLPRSGKTNYNEEFRGKATFTADTSSNTAYMQLSSLTSEDSAVYYCARTDPPYFGVWGAGTMVAVSS
VL: QIVLTQSPPIMSASPGEKVTMTCSASSNISYMHWYQQKSGTSPKRWIYDTSKLASGVPARFSGSGSGTSYSLTISSMEAEDAATYYCQQWSSVPLTFGAGTKLEIK
notes: also called 15D4 (positive clone supernatant)

- OD450 [8]: ~3.5 OD450
B8: mouse monoclonal antibody produced by hybridoma clone 21E5 (antibody, V domains shown)
VH: QVQLQQSGAELMKPGASMKISCKATGYTFSTYWIEWVKQRPGHGLEWIGENLPGRHITNYNEKFKGKATFTADTSSNTAYMQLSSLTSEDSAVYYCARGRGTYYFDYWGQGTPLTVSS
VL: DIVMTQAAFSTPVTLGTSASISCRSSQSLLHSNGITYLYWYLQKPGQSPQLLIYQMSNLASGVPDRFSSSGSGTDFTLRISRVEAEDVGVYYCAQNLEFPFTFGSGTKLEIK
notes: also called 21E5 (positive clone supernatant)

- binding result [8]: no binding
B10: mouse monoclonal antibody produced by hybridoma clone 2A5 (antibody, V domains shown)
VH: EVQLQQSGPELVKPGASMKISCKASGYSFTGYTMNWVKQSHGKNLEWIGLINPYNGGTNYNQKFKGKATLTVDKSSSTAYMELLSLTSEDSAVYYCAFSYYGSRGFYFDYWGQGTTLTVSS
VL: QIVLTQSPALMSASPGEKVTMTCSATSSVSYIYWYQQKPRSSPKPWIYLTSNLASGVPARFSGSGSGTSYSLTISSMEAEDAATYYCQQWSSNPPTFGGGTKLEIK
notes: also called 2A5 (positive clone supernatant)

- IC50; p-TrkA level by AlphaLISA in NGF-stimulated NIH3T3-TrkA stable cell line [3]: 0.16 µg/mL
B11: MNAC13 (anti-TrKA monoclonal antibody, positive control) (antibody, human IgG4 S228P, kappa, F234A L235A, V domains shown)
VH: EVQLLESGGGLVQPGGSLRLSCAASGFTFSTYTMSWARQAPGKGLEWVAYISKGGGSTYYPDTVKGRFTISRDNSKNTLYLQMNSLRAEDSAVYYCARGAMFGNDFFFPMDRWGQGTLVTVSS
VL: DIVLTQSPSSLSASVGDRVTITCSASSSVSYMHWYQQKPGQAPKLLIYTTSNLASGVPSRFSGSGSGTDYTLTISSLQPEDVATYYCHQWSSYPWTFGGGTKVEIKR
